IntAct's records for PubMed 18552200

B1: DDB1- and CUL4-associated factor homolog 1 (Arabidopsis thaliana (Mouse-ear cress)), Q9M086 (parent)
chain: MDGQEHAEVPNSMVEDDQSVVAAEAIAELANSTGEPNPEEGEEQSVEDELIAKAQKLMEDITSVANNPNPNILHALSQLLESQESLFLEENGHFSNARGSHNSGKLCILIRENDEFFELISSTFLSENSYSTAVKAASARLLMNCSLTWMYPHVFDDAVTENFKNWVMEEAVKFPGEDSAKKEASDFEMLKTYSTGLLALSLASRGQIVEDVLTSGLSAKLMHYLRVRVLKEPSTSRIHTTETKHVSLKTKEEGRSRVRKIVDTVEGDHVLETDSGREMGQTDVQPDGEFEIDGRDVFNVSGVVDCKIKPGDDNSVRDDPSRHRLNRSKSRGRGRVHEGAPDTEVLLASPRLGRLLVRDRDLSKISDGRNAEDVTVCLGKMKSGIMEIEREDNDECFQGCIIGTKNITDLVKRAVGAAETEARAAHAPDDAAKAAGDAAAELVKTAALEEFKSSGSEEAAVSAATRAAITVIDAAEVSRNPTCVTSDQTTDVSEVSLPDIESLAQLQEKYCIQCLEILGEYVEVLGPVLHEKGVDVCIVLLERTSQLDDRSTVSPLLPDVMKLICALAAHRKFAAMFVERRGILKLLAVPRVSETFYGLSSCLYTIGSLQGIMERVCALPLVVIHQVVKLAIELLDCSQDQARKNSALFFAAAFVFRAILDAFDAQDSLQKLLAILKDAASVRTGANTDRSAPEVMTSSEKQMAFHTCFALRQYFRAHLLLLVDSIRPSRISRGGVPSSMKPNIRAAYKPLDISNEAVDAIFLQLQKDRRLGPTFVKAQWPAVNNFLASSGHVTMLELCQTPPVDRYLHDLLQYAFGVLHIVTSIPDGRKAIAHATLSNNRAGIAVILDAANISNSIVDPEIIQPALNVLINLVCPPPSLSNKPPLAQNHQPVPGQATTRPSTDVAVGTQSTGNAPQTPVAPASSGLVGDRRIFLGAGTGSAGLAAKLEQVYRQAREAVRGNDGIKILLKLLQPRIYVNPPATPDCLRALACRVLLGLARDDTIAQILTKLEVGKSLSELIRDSGGQSSGTDQGRWQAELAQVALELIGIVTNSGHATTLTASDAATPTLRRIERAAIAAATPITYDSKELLLLIHEHLQASGLGDTASALLKEAQLTPLPSSASPSSIAYSTTQEMSTPLAQEQWPSGRANSGFFTSKPKVCAHDEDPNSRSNAALSAKKKHLASSTLEMPTPVAQQQWPSGRANCGFCPSIPKINARDEDPSSRGNAAPSAKKKQLTFSPSFSSQSRKQSFSHDALPQSTQRINCCSNSDPALADTSETAAELVLKNDLDADAQFKTPISFPRKRKLSELRDSSVPGKRIDLGERRNSTFADGSGLQTPASALDANQSGSSRLGQMTPASQLRLPSDPQPSNPERLSLDSLVVQYLKHQHRQCLAPITTLPPVSLLHPHVCPEPKRLLEAPLNMTGRLGTRELQSFYSGVHGNRRDRQFVFSRFKSWRSFRDETALFTCIALLGGTNHIAVGSHAGEIKIFEASSGSMLESVSGHQAPVTLVQPYVSRDTQLLLSSSSSDVQLWDASSITGGPRHSFDGCKAAKFSNSGLQFAALSCEASRKDVLLYDVQTCSPCQKLTDTVTSSRSNPYSLVHFSPCDTLILWNGVLWDRRIPEKVRRFDQFTDYGGGGFHPSRNEVIINSEIWDMRTFKLLRSVPSLDQTAITFNSRGDVIYAMLRRNIEDVMSAVHTRRVKHPLFAAFRTLDAINYSDIATIPVDRCLLDFATEPTDSFLGLITMEDQEDMFSSARMYEIGRRRPTDDDSDPDDDDETEDEDEDDEEEDDLDRILGLAGDNSDSGDDDLSSEDNEDSVSDFDEEADILIDGDFMEELIEGENEDDGNGEDEDDDDDGEMQDFMSSGEEDDYRDNIRSS
partner: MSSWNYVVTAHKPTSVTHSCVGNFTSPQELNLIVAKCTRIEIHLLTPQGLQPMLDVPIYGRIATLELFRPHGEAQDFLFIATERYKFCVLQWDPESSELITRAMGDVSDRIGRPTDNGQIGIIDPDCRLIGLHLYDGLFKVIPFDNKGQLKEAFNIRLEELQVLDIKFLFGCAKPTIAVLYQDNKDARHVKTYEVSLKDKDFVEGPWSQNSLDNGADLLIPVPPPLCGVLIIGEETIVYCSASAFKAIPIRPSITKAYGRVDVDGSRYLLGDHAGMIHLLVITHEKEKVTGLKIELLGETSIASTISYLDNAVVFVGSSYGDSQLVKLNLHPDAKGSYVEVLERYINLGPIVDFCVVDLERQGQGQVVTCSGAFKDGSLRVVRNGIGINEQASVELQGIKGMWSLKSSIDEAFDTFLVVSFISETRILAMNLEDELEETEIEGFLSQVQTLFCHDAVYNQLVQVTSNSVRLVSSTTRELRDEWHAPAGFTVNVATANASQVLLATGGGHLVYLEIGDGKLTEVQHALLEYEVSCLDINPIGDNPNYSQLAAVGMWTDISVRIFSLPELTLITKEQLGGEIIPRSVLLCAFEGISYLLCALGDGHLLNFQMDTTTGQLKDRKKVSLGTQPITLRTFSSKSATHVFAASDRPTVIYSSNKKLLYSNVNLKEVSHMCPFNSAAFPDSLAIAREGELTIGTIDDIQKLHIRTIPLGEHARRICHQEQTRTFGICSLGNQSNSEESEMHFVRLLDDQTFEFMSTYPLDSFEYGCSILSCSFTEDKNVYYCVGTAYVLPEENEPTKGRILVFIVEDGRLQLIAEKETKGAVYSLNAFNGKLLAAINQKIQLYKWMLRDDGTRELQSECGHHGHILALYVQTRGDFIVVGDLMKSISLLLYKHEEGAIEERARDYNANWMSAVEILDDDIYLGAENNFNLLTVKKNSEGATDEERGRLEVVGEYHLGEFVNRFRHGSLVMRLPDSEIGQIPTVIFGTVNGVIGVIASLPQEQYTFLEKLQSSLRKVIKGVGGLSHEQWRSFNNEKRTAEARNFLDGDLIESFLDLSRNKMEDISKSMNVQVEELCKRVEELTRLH

Variants of: B1
Details: with ddb1a_arath DDB1A

| Variant | effect of a mutation on the interaction |
| --- | --- |
| D1622A;R1624A;D1658A;R1660A | decreasing interaction |
| D1658A;R1660A | decreasing interaction |
| D1622A;R1624A | decreasing interaction |
